Square brackets hold non-standard residues; d marks the D form. Oic = O=C(O)[C@@H]1C[C@@H]2CCCC[C@@H]2N1; Dab = NCC[C@H](N)C(=O)O; Deg = CCC(N)(CC)C(=O)O

For the assay, the target named is human CCR10 (human) (UniProt P46092). Nature of the assay: cell-based or functional assay.
Chain of human CCR10 (human) (P46092 whole entry): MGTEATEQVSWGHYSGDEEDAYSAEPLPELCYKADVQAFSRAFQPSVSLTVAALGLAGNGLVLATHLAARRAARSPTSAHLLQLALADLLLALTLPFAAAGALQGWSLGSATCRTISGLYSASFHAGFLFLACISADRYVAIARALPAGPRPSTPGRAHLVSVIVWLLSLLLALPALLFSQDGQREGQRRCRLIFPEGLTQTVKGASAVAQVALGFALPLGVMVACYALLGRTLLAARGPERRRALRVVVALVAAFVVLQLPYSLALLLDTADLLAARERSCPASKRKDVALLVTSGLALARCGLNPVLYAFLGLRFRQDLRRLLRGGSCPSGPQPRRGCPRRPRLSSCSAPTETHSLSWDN

For “cyclo(-Trp-Cyp-Trp-Dab-^DPro-Oic-) (peptide)”, the IC50 (nM) Calcium Flux Assay amounted to 123 nM and the IC50 (nM) Chemotaxis Assay turned out to be 29 nM.
The matching figures for “cyclo(-Trp-Cyp-Trp-Dab-^DPro-Pro(5,5Me2)-) (peptide)”: 82.5 nM and 14.2 nM.
Take “cyclo(-Trp-Cyp-Trp-Ser-^DPip-Oic-) (peptide)”: the IC50 (nM) Calcium Flux Assay turned out to be 6.9 nM and the IC50 (nM) Chemotaxis Assay was 9.6 nM.
For “cyclo(-Trp-Cyp-Trp-Dab-^DPro-Thz-) (peptide)”, in that order: 134 nM and 19.6 nM.
Turning to “cyclo(-Trp-Cyp-Trp-Gln-^DPro-Oic-) (peptide)”, the IC50 (nM) Calcium Flux Assay turned out to be 44.3 nM.
Regarding “cyclo(-Trp-Cyp-Trp-Lys(Nic)-^DPro-Oic-) (peptide)”, the IC50 (nM) Calcium Flux Assay was determined as 49.5 nM and the IC50 (nM) Chemotaxis Assay came to 8.8 nM.
The matching figures for “cyclo(-Trp-Cyp-Trp-Dab(MePpzCO)-^DPro-Oic-) (peptide)”: 53.9 nM and 5.3 nM.
For “cyclo(-OctG-Cyp-Trp-Dab-^DPro-Oic-) (peptide)”, the IC50 (nM) Calcium Flux Assay was determined as 40.4 nM and the IC50 (nM) Chemotaxis Assay amounted to 4.2 nM.
The matching figures for “cyclo(-Tyr(Ph)-Cyp-Trp-Dab-^DPro-Oic-) (peptide)”: 1.1 nM and 1.7 nM.
Take “cyclo(-Trp-Cyp-Trp-Arg-^DPro-Thz-) (peptide)”: the IC50 (nM) Calcium Flux Assay came to 70.6 nM.
Turning to cyclo(W[Deg]W[Dab][dP][Oic]), the IC50 (nM) Calcium Flux Assay was 146 nM and the IC50 (nM) Chemotaxis Assay came to 76.1 nM.
“cyclo(-Trp-Cyp-Trp-Dab-^DPro-Hyp-) (peptide)”: the IC50 (nM) Calcium Flux Assay came to 190 nM.
Same read-out and setting: the figure for “cyclo(-Trp-Cyp-2Nal-Dab-^DPip-Oic-) (peptide)” is 70.5 nM.
On to “cyclo(-Trp-Cyp-Trp-alloThr-^DPro-Oic-) (peptide)”, for which the IC50 (nM) Calcium Flux Assay was 11.6 nM and the IC50 (nM) Chemotaxis Assay amounted to 1.2 nM.
For “cyclo(-Trp-Cyp-Trp-Lys(Ac)-^DPro-Oic-) (peptide)”, in that order: 28 nM and 2.3 nM.
For “cyclo(-Trp(5OH)-Cyp-Trp-Arg-^DPro-Thz(5,5Me2)-) (peptide)”, in that order: 214 nM and 109 nM.
The matching figures for “cyclo(-Trp-Cyp-Trp-Dab-^DPip-Oic-) (peptide)”: 26 nM and 17 nM.
Turning to “cyclo(-Trp-Cyp-Trp-Dab-^DPro-(4S)-Hyp(Bn)-) (peptide)”, the IC50 (nM) Calcium Flux Assay came out at 260 nM and the IC50 (nM) Chemotaxis Assay was 60.1 nM.
For the substance “cyclo(-Trp-Cyp-Trp-Dab-^DPro-Hyp(4BrBn)-) (peptide)”, the IC50 (nM) Calcium Flux Assay was determined as 11.6 nM and the IC50 (nM) Chemotaxis Assay came out at 2.5 nM.
The substance “cyclo(-Trp-Cyp-Trp-Lys(Me)-^DPro-Oic-) (peptide)” registered an IC50 (nM) Chemotaxis Assay of 4.4 nM.
Consider “cyclo(-Trp-Cyp-Phe(4Cl)-Dab-^DPro-Hyp(Bn)-) (peptide)”, for which the IC50 (nM) Calcium Flux Assay is 39.9 nM.
As for “cyclo(-Trp(6Cl)-Cyp-Trp-Ser-^DPro-Oic-) (peptide)”, the IC50 (nM) Calcium Flux Assay turned out to be 6.3 nM and the IC50 (nM) Chemotaxis Assay is 5 nM.
The matching figures for “cyclo(-Trp-Cyp-Trp-Dab-^DPro-Pro((4S)cHex)-) (peptide)”: 54.3 nM and 140 nM.
For “cyclo(-2Nal-Cyp-Trp-Dab-^DPip-Pip-) (peptide)”, in that order: 43.2 nM and 9.7 nM.
For “cyclo(-Trp-Ac7c-Trp-Dab-^DPro-Oic-) (peptide)”, in that order: 393 nM and 7.2 nM.
As for “cyclo(-Phe(4CN)-Cyp-Phe(4F)-Ser-^DPro-Hyp(Bn)-) (peptide)”, the IC50 (nM) Calcium Flux Assay is 1.9 nM and the IC50 (nM) Chemotaxis Assay was 13.5 nM.
For “cyclo(-Trp-Cyp-Phe(4CF3)-Dab-^DPro-Oic-) (peptide)”, in that order: 58.6 nM and 38.7 nM.
Turning to “cyclo(-Trp-Cyp-Tyr(Me)-Dab-^DPro-Oic-) (peptide)”, the IC50 (nM) Calcium Flux Assay amounted to 214 nM and the IC50 (nM) Chemotaxis Assay came to 3.8 nM.
For “cyclo(-Trp-Cyp-Tyr(Ph)-Dab-^DPro-Oic-) (peptide)”, in that order: 602 nM and 208 nM.
The matching figures for “cyclo(-Trp-Cyp-Trp-Dab(morphCO)-^DPro-Oic-) (peptide)”: 3 nM and 11.1 nM.
As to “cyclo(-Trp-Cyp-Trp-Ser(Me)-^DPro-Oic-) (peptide)”, the IC50 (nM) Calcium Flux Assay was 46.4 nM and the IC50 (nM) Chemotaxis Assay was 10.1 nM.
Consider “cyclo(-Trp(5OH)-Cyp-Trp-Arg-^DPro-Tic-) (peptide)”, for which the IC50 (nM) Calcium Flux Assay is 52.5 nM.
Turning to “cyclo(-Trp-Cyp-Trp-Dab(MEMCO)-^DPro-Oic-) (peptide)”, the IC50 (nM) Calcium Flux Assay was determined as 62.8 nM and the IC50 (nM) Chemotaxis Assay was determined as 11.5 nM.
For “cyclo(-Trp(5OH)-Cyp-Trp-Gln-^DPro-Thz-) (peptide)”, in that order: 144 nM and 3.1 nM.
The matching figures for “cyclo(-Trp-Cyp-Phe(4Cl)-Ser-^DPro-Oic-) (peptide)”: 6.1 nM and 2.7 nM.
On to “cyclo(-Trp(5OH)-Cyp-Trp(5OH)-Dap-^DPro-Oic-) (peptide)”, for which the IC50 (nM) Calcium Flux Assay came to 246 nM.
As for “cyclo(-Trp-Cyp-Trp-Gln(iPr)-^DPro-Oic-) (peptide)”, the IC50 (nM) Calcium Flux Assay was 25.1 nM and the IC50 (nM) Chemotaxis Assay worked out at 1 nM.
For “cyclo(-Trp-Cyp-Trp-Dab(Ac)-^DPro-Oic-) (peptide)”, in that order: 30.3 nM and 4.8 nM.
For “cyclo(-Trp-Cyp-Trp-hCys-^DPro-Oic-) (peptide)”, in that order: 54.9 nM and 8.7 nM.
The matching figures for “cyclo(-Phe(4CF3)-Cyp-Trp-Dab-^DPro-Oic-) (peptide)”: 58.1 nM and 13.4 nM.

The record behind these values is patent US20120283168A1.
